Apparent Kd for PCNA: PCNA concentration for half-maximal stimulation of polymerase activity on poly(dA)/oligo(dT), hyperbolic fit data for one substance are collected here from publication PMC3377666.

In experiment [1] the target is recombinant human Pol δ core dimer (p125/p50) (human) (UniProt P28340).
Experiment [2] addresses recombinant human Pol δ core+p12 trimer (p125/p50/p12) (human) (UniProt P28340).
Experiment [3] addresses recombinant human Pol δ core+p68 trimer (p125/p50/p68) (human) (UniProt P28340).
The target of experiment [4] is recombinant human Pol δ holoenzyme (heterotetramer p125/p50/p68/p12) (human) (UniProt P28340).
recombinant human Pol δ holoenzyme (heterotetramer p125/p50/p68/p12) (human), sequence (P28340 whole entry, stated change not applied, chain 1 of 4): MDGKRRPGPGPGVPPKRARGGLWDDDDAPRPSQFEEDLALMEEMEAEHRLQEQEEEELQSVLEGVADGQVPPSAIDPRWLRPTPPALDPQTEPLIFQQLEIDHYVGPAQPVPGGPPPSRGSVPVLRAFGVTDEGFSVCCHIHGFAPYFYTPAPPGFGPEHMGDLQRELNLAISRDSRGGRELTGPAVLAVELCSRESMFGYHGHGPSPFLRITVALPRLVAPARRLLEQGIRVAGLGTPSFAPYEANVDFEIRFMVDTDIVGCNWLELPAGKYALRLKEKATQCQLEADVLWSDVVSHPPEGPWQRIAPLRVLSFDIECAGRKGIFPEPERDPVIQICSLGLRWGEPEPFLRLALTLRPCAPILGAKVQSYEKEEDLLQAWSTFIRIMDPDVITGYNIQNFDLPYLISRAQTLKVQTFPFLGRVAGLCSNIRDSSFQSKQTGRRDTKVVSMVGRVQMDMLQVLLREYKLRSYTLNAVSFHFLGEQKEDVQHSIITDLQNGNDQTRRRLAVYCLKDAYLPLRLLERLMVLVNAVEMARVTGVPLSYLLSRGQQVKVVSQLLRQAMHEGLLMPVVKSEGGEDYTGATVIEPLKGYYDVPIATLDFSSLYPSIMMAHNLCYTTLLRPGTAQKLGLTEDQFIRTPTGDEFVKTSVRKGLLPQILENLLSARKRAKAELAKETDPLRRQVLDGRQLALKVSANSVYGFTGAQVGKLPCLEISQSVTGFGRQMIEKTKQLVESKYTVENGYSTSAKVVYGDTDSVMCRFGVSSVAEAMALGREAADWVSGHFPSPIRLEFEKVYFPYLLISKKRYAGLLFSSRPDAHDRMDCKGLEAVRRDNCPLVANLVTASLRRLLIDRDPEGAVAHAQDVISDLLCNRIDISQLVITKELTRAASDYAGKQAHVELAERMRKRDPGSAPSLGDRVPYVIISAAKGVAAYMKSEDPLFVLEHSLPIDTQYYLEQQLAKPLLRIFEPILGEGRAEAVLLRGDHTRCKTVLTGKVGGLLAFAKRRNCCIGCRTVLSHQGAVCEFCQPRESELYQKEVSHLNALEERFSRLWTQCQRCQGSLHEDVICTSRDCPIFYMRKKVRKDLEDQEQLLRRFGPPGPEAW
recombinant human Pol δ holoenzyme (heterotetramer p125/p50/p68/p12) (human), sequence (P49005 whole entry, stated change not applied, chain 2 of 4, further chain): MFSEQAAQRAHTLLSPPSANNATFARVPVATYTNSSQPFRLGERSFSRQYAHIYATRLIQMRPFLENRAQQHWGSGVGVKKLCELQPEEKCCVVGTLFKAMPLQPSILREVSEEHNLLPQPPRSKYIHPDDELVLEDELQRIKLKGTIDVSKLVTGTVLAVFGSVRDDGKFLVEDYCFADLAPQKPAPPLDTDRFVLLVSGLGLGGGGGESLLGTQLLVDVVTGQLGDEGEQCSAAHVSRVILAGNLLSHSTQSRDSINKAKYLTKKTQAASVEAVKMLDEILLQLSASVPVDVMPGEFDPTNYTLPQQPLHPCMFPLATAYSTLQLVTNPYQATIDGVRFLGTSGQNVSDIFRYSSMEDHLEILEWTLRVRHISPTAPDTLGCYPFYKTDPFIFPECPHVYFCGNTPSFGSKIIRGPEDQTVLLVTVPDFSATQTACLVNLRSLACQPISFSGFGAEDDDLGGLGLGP
recombinant human Pol δ holoenzyme (heterotetramer p125/p50/p68/p12) (human), sequence (Q15054 whole entry, stated change not applied, chain 3 of 4, further chain): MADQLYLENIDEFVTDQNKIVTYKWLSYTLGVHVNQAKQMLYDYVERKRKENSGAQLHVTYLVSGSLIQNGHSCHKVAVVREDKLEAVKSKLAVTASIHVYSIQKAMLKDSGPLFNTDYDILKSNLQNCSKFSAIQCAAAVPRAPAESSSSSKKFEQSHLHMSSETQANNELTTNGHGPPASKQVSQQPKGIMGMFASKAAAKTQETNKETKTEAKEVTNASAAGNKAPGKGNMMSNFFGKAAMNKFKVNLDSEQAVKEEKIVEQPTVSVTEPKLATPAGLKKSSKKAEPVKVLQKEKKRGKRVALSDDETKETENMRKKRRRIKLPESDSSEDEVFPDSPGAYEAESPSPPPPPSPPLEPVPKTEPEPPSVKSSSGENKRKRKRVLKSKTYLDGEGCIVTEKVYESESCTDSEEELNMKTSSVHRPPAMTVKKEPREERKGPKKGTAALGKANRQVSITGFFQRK
recombinant human Pol δ holoenzyme (heterotetramer p125/p50/p68/p12) (human), sequence (Q9HCU8 whole entry, stated change not applied, chain 4 of 4, further chain): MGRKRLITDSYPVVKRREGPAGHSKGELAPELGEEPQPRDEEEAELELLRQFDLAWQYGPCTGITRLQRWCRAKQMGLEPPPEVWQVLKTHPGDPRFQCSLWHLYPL

recombinant human PCNA (Proliferating Cell Nuclear Antigen), sequence (P12004 whole entry): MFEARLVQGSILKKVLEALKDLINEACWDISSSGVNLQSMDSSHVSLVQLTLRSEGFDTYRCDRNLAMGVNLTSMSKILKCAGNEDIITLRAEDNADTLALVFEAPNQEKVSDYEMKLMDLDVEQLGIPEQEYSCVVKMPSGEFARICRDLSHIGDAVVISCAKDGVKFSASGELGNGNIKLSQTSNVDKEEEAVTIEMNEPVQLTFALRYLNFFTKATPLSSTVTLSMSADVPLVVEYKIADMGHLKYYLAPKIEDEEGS
recombinant human Pol δ core+p68 trimer (p125/p50/p68) (human), sequence (P28340 whole entry, stated change not applied, chain 1 of 3): as the sequence (P28340 whole entry, stated change not applied, chain 1 of 4) above
recombinant human Pol δ core+p68 trimer (p125/p50/p68) (human), sequence (P49005 whole entry, stated change not applied, chain 2 of 3, further chain): as the sequence (P49005 whole entry, stated change not applied, chain 2 of 4, further chain) above
recombinant human Pol δ core+p68 trimer (p125/p50/p68) (human), sequence (Q15054 whole entry, stated change not applied, chain 3 of 3, further chain): as the sequence (Q15054 whole entry, stated change not applied, chain 3 of 4, further chain) above
recombinant human Pol δ core dimer (p125/p50) (human), sequence (P28340 whole entry, stated change not applied, chain 1 of 2): as the sequence (P28340 whole entry, stated change not applied, chain 1 of 4) above
recombinant human Pol δ core dimer (p125/p50) (human), sequence (P49005 whole entry, stated change not applied, chain 2 of 2, further chain): as the sequence (P49005 whole entry, stated change not applied, chain 2 of 4, further chain) above
recombinant human Pol δ core+p12 trimer (p125/p50/p12) (human), sequence (P28340 whole entry, stated change not applied, chain 1 of 3): as the sequence (P28340 whole entry, stated change not applied, chain 1 of 4) above
recombinant human Pol δ core+p12 trimer (p125/p50/p12) (human), sequence (P49005 whole entry, stated change not applied, chain 2 of 3, further chain): as the sequence (P49005 whole entry, stated change not applied, chain 2 of 4, further chain) above
recombinant human Pol δ core+p12 trimer (p125/p50/p12) (human), sequence (Q9HCU8 whole entry, stated change not applied, chain 3 of 3, further chain): as the sequence (Q9HCU8 whole entry, stated change not applied, chain 4 of 4, further chain) above

As to “recombinant human PCNA (Proliferating Cell Nuclear Antigen) (from UniProt P12004 1-261) (natural protein)”, the apparent Kd for PCNA: PCNA concentration for half-maximal stimulation of polymerase activity on poly(dA)/oligo(dT), hyperbolic fit in experiment [1] stood at 73 nM trimer; in experiment [2], 8.7 nM trimer; in experiment [3], 9.3 nM trimer; in experiment [4], 7.1 nM trimer.
